Measurements: publication PMC10123652, “An Antibody Targeting Fibroblast Activation Protein Simultaneously Fused to Interleukin-2 and Tumor Necrosis Factor Selectively Localizes to Neoplastic Lesions” (Antibodies, 2023)

Legend:
[1] = target: T1, recombinant human fibroblast activation protein (FAP) (Homo sapiens, UniProt Q12884); test: ELISA; plate coated with 0.1 µM human FAP overnight at 4 °C in 50 mM HEPES, 100 mM NaCl, pH 7.4; serial dilutions of IL2-7NP2-TNF^mut in 2% milk-PBS, 4 h at RT; detection with Protein A-HRP; triplicate; settings: both partners purified
T1 construct: also called human FAP antigen; hFAP
T1 sequence (Q12884 whole entry): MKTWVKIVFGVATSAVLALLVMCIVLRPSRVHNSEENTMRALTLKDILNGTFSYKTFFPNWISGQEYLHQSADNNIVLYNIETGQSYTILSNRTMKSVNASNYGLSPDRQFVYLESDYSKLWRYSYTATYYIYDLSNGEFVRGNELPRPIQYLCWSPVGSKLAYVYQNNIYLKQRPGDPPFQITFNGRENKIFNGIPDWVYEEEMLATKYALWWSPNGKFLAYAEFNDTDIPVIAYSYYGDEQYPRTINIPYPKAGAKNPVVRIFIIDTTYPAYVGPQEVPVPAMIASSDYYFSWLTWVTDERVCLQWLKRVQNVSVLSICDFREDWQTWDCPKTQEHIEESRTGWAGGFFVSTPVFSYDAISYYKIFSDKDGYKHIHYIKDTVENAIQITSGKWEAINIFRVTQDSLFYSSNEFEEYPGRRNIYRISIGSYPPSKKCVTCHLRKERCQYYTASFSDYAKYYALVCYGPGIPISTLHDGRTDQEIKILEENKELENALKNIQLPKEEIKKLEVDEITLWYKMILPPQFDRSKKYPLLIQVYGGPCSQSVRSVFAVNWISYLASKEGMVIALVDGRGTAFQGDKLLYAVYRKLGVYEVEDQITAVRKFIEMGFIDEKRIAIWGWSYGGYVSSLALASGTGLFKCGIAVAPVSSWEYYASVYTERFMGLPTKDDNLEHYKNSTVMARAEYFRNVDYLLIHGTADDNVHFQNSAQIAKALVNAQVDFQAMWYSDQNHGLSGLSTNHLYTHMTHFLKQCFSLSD

[2] = target: IL2-7NP2-TNF^mut (human); test: SEC; Superdex 200 Increase 10/300 GL; purified protein dialyzed against PBS pH 7.4; IgG (150 kDa) and SIP (80 kDa) as controls

- Kd [1]: ~100 pM
- stoichiometry N [2]: 3
B1: IL2-7NP2-TNF^mut (other, human)
VH: EVQLLESGGGLVQPGGSLRLSCAASGFTFSSYAMSWVRQAPGKGLEWVSAIGSVGGPTYYADSVKGRFTISRDNSKNTLYLQMNSLRAEDTAVYYCAKRLAWFDYWGQGTLVTVSS
VL: EIVLTQSPGTLSLSPGERATLSCRASQSVSSSYLAWYQQKPGQAPRLLIYGASSRATGIPDRFSGSGSGTDFTLTISRLEPEDFAVYYCQQSGKGPLTFGQGTKVEIK
notes: wild-type human interleukin-2 (IL2), N-terminal moiety of the fusion; mutated version of human TNF (TNFα); Non-covalent homotrimer; also called dual-cytokine antibody fusion protein
